Experimental data published in patent US6071733.

Assays:
[1] = biological target: polypeptide Hex3, polypeptide of subunit (B) of the hexaprenyl diphosphate synthetase of Micrococcus luteus B-P 26 (Micrococcus luteus B-P 26)
[2] = biological target: polypeptide GERC3, subunit of the heptaprenyl diphosphate synthetase of Bacillus subtilis (ATCC 6633) (Bacillus subtilis (ATCC 6633)) (UniProt P31114)
[3] = biological target: polypeptide Hep2, subunit of the thermoresistant heptaprenyl diphosphate synthetase of Bacillus stearothermophilus (ATCC 10149) (Bacillus stearothermophilus (ATCC 10149))
[4] = biological target: Hex2, protein encoded by hex2 of Micrococcus luteus B-P 26 (Micrococcus luteus B-P 26)

Row | Substance | Activity (dpm), prenyl diphosphate (HexPP) synthetase activity of mixed crude homogenates [1] | Activity (dpm), HepPS activity of proteins mixed in equal amounts [2] | Activity (dpm), HepPS activity of proteins mixed in equal amounts [3] | Activity (dpm), prenyl diphosphate (HexPP) synthetase activity of mixed crude homogenates [4]
1 | Hex2, protein encoded by hex2 of Micrococcus luteus B-P 26 | 0 dpm |  |  | 
2 | polypeptide GERC1, subunit of the heptaprenyl diphosphate synthetase of Bacillus subtilis (ATCC 6633) (enzyme) |  | 136 dpm | 7920 dpm | 
3 | polypeptide Hep1, subunit of the heptaprenyl diphosphate synthetase of Bacillus stearothermophilus (ATCC 10149) (from UniProt P55784) (enzyme) |  |  | 0 dpm | 
4 | polypeptide Hex1, polypeptide of subunit (A) of the hexaprenyl diphosphate synthetase of Micrococcus luteus B-P 26 (enzyme) | 2920 dpm |  |  | 0 dpm
